{
  "source": "paper PMC7103410",
  "biological_target": "M116, the C-terminal 116 amino acids of SARS-CoV membrane (M) protein (recombinant cytoplasmic region) (SARS-CoV)",
  "test": "SPR",
  "data": [
    {"substance": "N peptide 101–115", "values": [
      {"measurement": "Kd", "result": 0.73, "unit": "µM"}
    ]}
  ]
}
